Test results published in US20030055006A1, “Combinations and compositions which interfere with VEGF/VEGF and angiopoietin/tie receptor function and their use” (Schering Aktiengesellschaft, priority 2000, published 2003).

How the values were obtained:
[1] = system: A375v human melanoma xenograft (A375v/pCEP, A375v/sTie2); assay: Tumor growth in A375v human melanoma xenograft model, Example 1 (VEGF receptor kinase inhibitor and/or sTie2); assay type: in vivo, Swiss nu/nu mice; conditions: s.c. A375v xenograft; kinase inhibitor 50 mg/kg daily oral; sTie2 expressed by tumor cells; untreated control 24 days
Description: Human melanoma cell line A375v was stably transfected to overexpress the extracellular ligand-neutralizing domain of human Tie2 receptor tyrosine kinase (sTie2; compound II) (Siemeister et al., Cancer Res. 59, 3185-3191, 1999). For control, A375v cells were stably transfected with the empty expression vector (A375v/pCEP). Swiss nu/nu mice were s.c. injected with 1×10^6 transfected A375v/sTie2 or A375v/pCEP tumor cells, respectively. Animals receiving compound I were treated for up to […] with daily oral doses of 50 mg/kg of the VEGF receptor tyrosine kinase inhibitor (4-Chlorophenyl)[4-(4-pyridylmethyl)-phthalazin-1-yl]ammonium hydrogen succinate (Wood et al., Cancer Res. 60, 2178-2189, 2000). Various modes of treatment are described in Table 1. Tumor growth was determined by caliper measurement of the largest diameter and its perpendicular.

[2] = system: Tumors derived from A375v/pCEP cells; assay: Tumor growth in A375v xenograft, Example 4 (VEGF receptor kinase inhibitor and/or scFv-tTF conjugate); assay type: in vivo, nude mice; conditions: kinase inhibitor 50 mg/kg daily oral; scFv-tTF conjugate 20 μg i.v. on day 0 and day 4; untreated control approx. 1000 mm^3
Description: (§1) Tumors derived from A375v/pCEP cells were induced in nude mice as described in example 1. Animals receiving compound I were treated for up to 28 days with daily oral doses of 50 mg/kg of the VEGF receptor tyrosine kinase inhibitor (4-Chlorophenyl)[4-(4-pyridylmethyl)-phthalazin-1-yl]ammonium hydrogen succinate (Wood et al., Cancer Res. 60, 2178-2189, 2000). Compound II consists of a single chain antibody (scFv) specifically recognizing the human VEGF-A/VEGF receptor I complex (WO 99/19361) which was expressed in E. coli and conjugated to coagulation-inducing recombinant human truncated tissue factor (tTF) by methods descibed by Ran et al. (Cancer Res. 58, 46464653, 1998). When tumors reached a size of approx. 200 mm^3 animals receiving compound II were treated on day 0 and on day 4 with intravenous doses of 20 μg of the scFv-tTF conjugate. Various modes of treatment are described in Table 4. Animals were sacrificed for ethical reasons when tumors of group 1 exceeded a volume of approx. 1000 mm^3. Tumor growth was determined by caliper measurement of the largest diameter and its perpendicular.

[3] = system: Tumors derived from A375v/pCEP cells; assay: Tumor growth in A375v xenograft, Example 6 (VEGF receptor kinase inhibitor and/or L19 scFv-tTF); assay type: in vivo, nude mice; conditions: kinase inhibitor 50 mg/kg daily oral; L19 scFv-tTF single i.v. dose of 20 μg; untreated control approx. 1000 mm^3
Description: Tumors derived from A375v/pCEP cells were induced in nude mice as described in example 1. Animals receiving compound I were treated for up to 28 days with daily oral doses of 50 mg/kg of the VEGF receptor tyrosine kinase inhibitor (4-Chlorophenyl)[4-(4-pyridylmethyl)-phthalazin-1-yl]ammonium hydrogen succinate (Wood et al., Cancer Res. 60, 2178-2189, 2000). Compound II consists of L19 scFv-tTF fusion protein as described in example 5. When tumors reached a size of approx. 200 mm^3 animals receiving compound II were treated with a single intravenous dose of 20 μg of L19 scFv-tTF in 200 μl saline. Various modes of treatment are described in Table 6. Animals were sacrificed for ethical reasons when tumors of -group 1 exceeded a volume of approx. 1000 mm^3. Tumor growth was determined by caliper measurement of the largest diameter and its perpendicular.

[4] = system: Tumors derived from A375v/sTie2 cells and from A375v/pCEP cells; assay: Tumor growth in A375v xenograft, Example 3 (scFv-tTF conjugate and/or sTie2); assay type: in vivo, nude mice; conditions: sTie2 expressed by tumor cells; untreated control approx. 1000 mm^3
Description: as §1, with “derived from A375v/sTie2 cells and” for “derived”, “A” for “Animals receiving compound I were treated for up to 28 days with daily oral doses of 50 mg/kg of the VEGF receptor tyrosine kinase inhibitor (4-Chlorophenyl)[4-(4-pyridylmethyl)-phthalazin-1-yl]ammonium hydrogen succinate (Wood et al., Cancer Res. 60, 2178-2189, 2000). Compound II consists of a”, “99/19361)” for “99/19361) which”, “4646-4653,” for “46464653,”, “I” for “II”, “3.” for “4.”

[5] = system: Tumors derived from A375v/sTie2 cells and from A375v/pCEP cells; assay: Tumor growth in A375v xenograft, Example 5 (L19 scFv-tTF and/or sTie2); assay type: in vivo, nude mice; conditions: sTie2 expressed by tumor cells; untreated control approx. 1000 mm^3
Excerpt: Tumors derived from A375v/sTie2 cells and from A375v/pCEP cells were induced in nude mice as described in example 1. A fusion protein (L19 scFv-tTF) consisting of L19 single chain antibody specifically recognizing the oncofoetal ED-B domain of fibronectin and the extracellular domain of tissue factor was expressed in E. coli as described by Nilsson et al. (Nat. Med., in press). Further, L19 scFv-tTF data have been represented by D. Neri and F. Nilsson (Meeting “Advances in the application of monoclonal antibodies in clinical oncology”, Samos, Greece, 31. May-2. June 2000). When tumors reached a size of approx. 200 mm^3 animals receiving compound I were treated with a single intravenous dose of 20 μg of L19 scFv-tTF in 200 μl saline. Various modes of treatment are described in Table 5. Animals were sacrificed for ethical reasons when tumors of group 1 exceeded a volume of approx. 1000 mm^3. Tumor growth was determined by caliper measurement of the largest diameter and its perpendicular.

[6] = system: Tumors derived from A375v/sTie2 cells and from A375v/pCEP cells; assay: Tumor growth in A375v xenograft, Example 2 (mAb 4301-42-35 and/or sTie2); assay type: in vivo, nude mice; conditions: sTie2 expressed by tumor cells; untreated control approx. 1000 mm^3
Description: Tumors derived from A375v/sTie2 cells and from A375v/pCEP cells were induced in nude mice as described in example 1. Animals receiving compound I were treated twice weekly over a period of time of 4 weeks with intraperitoneal doses of 200 μg of the VEGF-A-neutralizing monoclonal antibody (mAb) 4301-42-35 (Schlaeppi et al., J. Cancer Res. Clin. Oncol. 125, 336-342, 1999). Various modes of treatment are descibed in Table 2. Animals were sacrificed for ethical reasons when tumors of group 1 exceeded a volume of approx. 1000 mm^3. Tumor growth was determined by caliper measurement of the largest diameter and its perpendicular.

Clc1ccc(Nc2nnc(Cc3ccncc3)c3ccccc23)cc1.O=C(O)CCC(=O)O [(4-Chlorophenyl)[4-(4-pyridylmethyl)-phthalazin-1-yl]ammonium hydrogen succinate]
time for tumors to grow to a size of approx. 250 mm^2 (mean area) [1]: 31 days | tumor volume within 28 days [2]: approx. 550 mm^3 | tumor volume within 28 days [3]: approx. 550 mm^3

B1: sTie2: extracellular ligand-neutralizing domain of human Tie2 receptor tyrosine kinase, overexpressed by transfected A375v cells (protein, UniProt Q02763 23-748, looked up)
extracellular domain: AMDLILINSLPLVSDAETSLTCIASGWRPHEPITIGRDFEALMNQHQDPLEVTQDVTREWAKKVVWKREKASKINGAYFCEGRVRGEAIRIRTMKMRQQASFLPATLTMTVDKGDNVNISFKKVLIKEEDAVIYKNGSFIHSVPRHEVPDILEVHLPHAQPQDAGVYSARYIGGNLFTSAFTRLIVRRCEAQKWGPECNHLCTACMNNGVCHEDTGECICPPGFMGRTCEKACELHTFGRTCKERCSGQEGCKSYVFCLPDPYGCSCATGWKGLQCNEACHPGFYGPDCKLRCSCNNGEMCDRFQGCLCSPGWQGLQCEREGIQRMTPKIVDLPDHIEVNSGKFNPICKASGWPLPTNEEMTLVKPDGTVLHPKDFNHTDHFSVAIFTIHRILPPDSGVWVCSVNTVAGMVEKPFNISVKVLPKPLNAPNVIDTGHNFAVINISSEPYFGDGPIKSKKLLYKPVNHYEAWQHIQVTNEIVTLNYLEPRTEYELCVQLVRRGEGGEGHPGPVRRFTTASIGLPPPRGLNLLPKSQTTLNLTWQPIFPSSEDDFYVEVERRSVQKSDQQNIKVPGNLTSVLLNNLHPREQYVVRARVNTKAQGEWSEDLTAWTLSDILPPQPENIKISNITHSSAVISWTILDGYSISSITIRYKVQGKNEDQHVDVKIKNATITQYQLKGLEPETAYQVDIFAENNIGSSNPAFSHELVTLPESQAPADLGGGKMLL
modifications: extracellular domain
notes: extracellular ligand-neutralizing domain of human Tie2 receptor tyrosine kinase, overexpressed by transfected A375v cells
tumor volume within 28 day [4]: approx. 600 mm^2 | time for tumors to grow to a size of approx. 250 mm^2 (mean area) [1]: 31 days | tumor volume within 28 day [5]: approx. 600 mm^2 | tumor volume within 28 day [6]: approx. 600 mm^2
